The text below walks through data of patent US20240384250A1, “FIBROBLAST GROWTH FACTOR 23 MODULATING COMPOUNDS” (THE UAB RESEARCH FOUNDATION, priority 2021, published 2024).

Read-outs that look alike come from different tables or passages of the source.

Assay [1] deals with T1, FGF23 binding to FGFR2c (Homo sapiens, UniProt P21802).
T1 construct: Fc-coupled FGFR ectodomains were immobilized on protein A/G beads; purchased R&D Systems 2604FG025/CF or 2629FG025/CF; 712FR050
As to the kind of experiment: Pull-down of FGF23 with Fc-FGFR on protein A/G beads with sKL, heparin or PBS. The conditions noted are these: with heparin, or alone. The procedure:
To study the interaction between Fc-tagged FGFR isoforms (Fc-FGFR), FGF isoforms, and sKL, immunoprecipitation studies were conducted. Protein A beads (6501, BioVision) and protein G beads (6511, BioVision) were used at 25 μl of a 50% stock slurry per sample in a total bead volume of 50 μl. Beads were washed 5× in activity buffer (50 mM Tris [pH 7.4], 200 mM NaCl, 0.01% Tween 20). Bead spin-down assays were all performed for 2 minutes at 5000 g. Beads were resuspended in 1 ml of activity buffer in a 1.5-ml snap cap tube. One microgram of Fc-FGFR1 to 4 was incubated with the beads for 1 hour on a bead rotator. Control samples were incubated with 2 μg of anti-FGF antibody instead of Fc-FGFR. Beads were then pelleted at 5000 g for 2 minutes and washed 5× with activity buffer. Beads were resuspended and incubated with different combinations of 500 ng of FGF, 1 μg of sKL, 1.6 United States Pharmacopeia (USP) units of heparin, or phosphate-buffered saline (PBS). Beads were incubated for 1 hour on a tube rotator, and beads were pelleted and washed as before. One hundred microliters of 1× Laemmli sample buffer (1610737, Bio-Rad) with 1.42 M 2-mercaptoethanol was added, and samples were boiled for 5 minutes. Samples were analyzed using SDS-PAGE and Western blotting.
(§1) The sample (20 μl) was loaded onto Mini-PROTEAN TGX Precast Gel 4-20% for experiments with <9 samples (4568094, Bio-Rad) or Criterion TGX Precast Gel 4-20% (5678094, Bio-Rad) for experiments with >9 samples. Gels were run in 1× Tris/Glycine/SDS buffer (1610732, Bio-Rad) at 150 V and stopped when the sample dye reached the end of the gel. Gels were removed and electrotransferred via a semi-dry cassette (1703940, Bio-Rad) in I× Tris/Glycine buffer (1610734, Bio-Rad) with 20% methanol. Gels were transferred onto polyvinylidene diflouride membranes (IPVH00010, Millipore) at 20 V for 1 hour. Membranes were then blocked in 5% dried milk with 0.5% Tween 20 diluted in Tris-buffered saline (TBST; pH 7.5) for 1 hour and probed with antibodies against specific antigens at 1:1000 in TBST with 5% dried milk. Blots were washed 3× for 5 minutes in TBST and probed with HRP-coupled secondary antibodies against specific species at 1:10,000 in TBST with 5% dried milk. Membranes were imaged on the SRX-101A X-ray film developer (Konica Minolta).

The subject of assay [2] is isolated adult ventricular cardiac myocytes. The conditions noted are these: previous studies; cited from earlier work.
For assay [3], the target named is T2, FGF19 (Homo sapiens, UniProt O95750).
T2 construct: purchased R&D Systems 969FG025/CF
T2 sequence (O95750 25-216): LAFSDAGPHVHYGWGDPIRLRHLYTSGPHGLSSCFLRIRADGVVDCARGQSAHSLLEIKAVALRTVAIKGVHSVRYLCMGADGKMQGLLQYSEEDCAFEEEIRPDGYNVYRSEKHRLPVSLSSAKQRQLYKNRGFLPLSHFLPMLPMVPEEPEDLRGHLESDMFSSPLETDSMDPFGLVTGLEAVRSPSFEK
As to the kind of experiment: Co-immunoprecipitation of FGF with FLAG-tagged sKL on anti-FLAG beads. In kind it is binding. As for the experimental part: (§2) To study the interaction between FLAG-tagged sKL and different FGF isoforms, co-immunoprecipitation studies were conducted. FLAG beads (A2220, Sigma-Aldrich) were used at 50 ul of 50% stock slurry per sample. Beads were washed 5× with activity buffer (50 mM Tris [pH 7.4], 200 mM NaCl, 0.01% Tween 20, Sigma-Aldrich). Bead spin-down assays were all performed for 2 minutes at 5000 g. Fifty microliters of a 50% slurry of beads per sample was resuspended in 1 ml of activity buffer in a 1.5-ml snap cap tube. One microgram of FLAG-tagged sKL or Carboxy-terminal bacterial alkaline phosphatase (BAPC; P7457, Sigma-Aldrich) was incubated with the beads for 1 hour on a bead rotator. Beads were then pelleted at 5000 g for 2 minutes and washed 5× with activity buffer. Beads were resuspended in 1 ml of activity buffer and samples with 500 ng of FGF. Beads were incubated for 1 hour on a tube rotator, and beads were pelleted and washed as before. One hundred microliters of I× Laemmli sample buffer (1610737, Bio-Rad) with 1.42 M 2-mercaptoethanol was added, and samples were boiled for 5 minutes and analyzed using sodium dodecylsulfate-polyacrylamide gel electrophoresis (SDS-PAGE) and Western blotting, as described below herein.
as §1

Assay [4] has as its target T3, FGF23 (Homo sapiens, UniProt Q9GZV9).
T3 construct: purchased R&D Systems 2604FG025/CF (human) or 2629FG025/CF (mouse)
T3 sequence (Q9GZV9 25-251): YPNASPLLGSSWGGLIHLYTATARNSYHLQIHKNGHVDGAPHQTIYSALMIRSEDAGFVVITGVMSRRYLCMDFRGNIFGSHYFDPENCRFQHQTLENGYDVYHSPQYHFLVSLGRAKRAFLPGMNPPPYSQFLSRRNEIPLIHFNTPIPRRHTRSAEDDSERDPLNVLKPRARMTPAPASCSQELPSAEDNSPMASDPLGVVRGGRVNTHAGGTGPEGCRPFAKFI
Described as above. In kind it is binding. The conditions noted are these: absence of FGFR. As for the experimental part: as §2, §1

Assay [5] addresses T4, FGF21 (Homo sapiens, UniProt Q9NSA1).
T4 construct: purchased R&D Systems 2539FG025/CF
T4 sequence (Q9NSA1 29-209): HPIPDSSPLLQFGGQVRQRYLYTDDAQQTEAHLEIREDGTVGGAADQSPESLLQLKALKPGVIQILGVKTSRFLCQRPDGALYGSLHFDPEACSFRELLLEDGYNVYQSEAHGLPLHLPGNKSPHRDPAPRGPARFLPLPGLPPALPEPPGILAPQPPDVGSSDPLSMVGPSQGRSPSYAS
The description is as above. Type of assay: binding. As for the experimental part:
as §2, §1

T1 sequence (P21802 22-377 limits assumed): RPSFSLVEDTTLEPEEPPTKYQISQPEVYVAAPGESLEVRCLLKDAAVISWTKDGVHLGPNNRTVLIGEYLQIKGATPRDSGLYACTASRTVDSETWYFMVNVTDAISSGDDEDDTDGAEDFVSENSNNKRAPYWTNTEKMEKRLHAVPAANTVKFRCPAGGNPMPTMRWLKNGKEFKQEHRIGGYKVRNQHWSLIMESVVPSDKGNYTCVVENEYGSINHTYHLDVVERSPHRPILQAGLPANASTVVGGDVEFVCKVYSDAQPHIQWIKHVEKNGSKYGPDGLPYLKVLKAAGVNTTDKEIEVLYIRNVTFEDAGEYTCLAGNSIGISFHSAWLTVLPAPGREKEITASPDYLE

B1: FGF23: recombinant fibroblast growth factor 23 protein from R&D Systems (protein)
chain: YPDTSPLLGSNWGSLTHLYTATARTSYHLQIHRDGHVDGTPHQTIYSALMITSEDAGSVVITGAMTRRFLCMDLHGNIFGSLHFSPENCKFRQWTLENGYDVYLSQKHHYLVSLGRAKRIFQPGTNPPPFSQFLARRNEVPLLHFYTVRPRRHTRSAEDPPERDPLNVLKPRPRATPVPVSCSRELPSAEEGGPAASDPLGVLRRGRGDARGGAGGADRCRPFPRFV
B1: the “FGF23 co-precipitation with Fc-FGFR2c” value in assay [1] was “no FGF23 binding was detected”.

B2: sKL: recombinant soluble α-klotho ectodomain, mouse aa 35-982 and human aa 34-981, FLAG- or Strep/His-tagged, purified from HEK293 cells (protein)
chain: EPGDGAQTWARFSRPPAPEAAGLFQGTFPDGFLWAVGSAAYQTEGGWQQHGKGASIWDTFTHHPLAPPGDSRNASLPLGAPSPLQPATGDVASDSYNNVFRDTEALRELGVTHYRFSISWARVLPNGSAGVPNREGLRYYRRLLERLRELGVQPVVTLYHWDLPQRLQDAYGGWANRALADHFRDYAELCFRHFGGQVKYWITIDNPYVVAWHGYATGRLAPGIRGSPRLGYLVAHNLLLAHAKVWHLYNTSFRPTQGGQVSIALSSHWINPRRMTDHSIKECQKSLDFVLGWFAKPVFIDGDYPESMKNNLSSILPDFTESEKKFIKGTADFFALCFGPTLSFQLLDPHMKFRQLESPNLRQLLSWIDLEFNHPQIFIVENGWFVSGTTKRDDAKYMYYLKKFIMETLKAIKLDGVDVIGYTAWSLMDGFEWHRGYSIRRGLFYVDFLSQDKMLLPKSSALFYQKLIEKNGFPPLPENQPLEGTFPCDFAWGVVDNYIQVDTTLSQFTDLNVYLWDVHHSKRLIKVDGVVTKKRKSYCVDFAAIQPQIALLQEMHVTHFRFSLDWALILPLGNQSQVNHTILQYYRCMASELVRVNITPVVALWQPMAPNQGLPRLLARQGAWENPYTALAFAEYARLCFQELGHHVKLWITMNEPYTRNMTYSAGHNLLKAHALAWHVYNEKFRHAQNGKISIALQADWIEPACPFSQKDKEVAERVLEFDIGWLAEPIFGSGDYPWVMRDWLNQRNNFLLPYFTEDEKKLIQGTFDFLALSHYTTILVDSEKEDPIKYNDYLEVQEMTDITWLNSPSQVAVVPWGLRKVLNWLKFKYGDLPMYIISNGIDDGLHAEDDQLRVYYMQNYINEALKAHILDGINLCGYFAYSFNDRTAPRFGLYRYAADQFEPKASMKHYRKIIDSNGFPGPETLERFCPEEFTVCTECSFFHTRKS
modifications: left off: small tags and cut ends
notes: recombinant soluble α-klotho ectodomain, mouse aa 35-982 and human aa 34-981, FLAG- or Strep/His-tagged, purified from HEK293 cells
As to B2, in assay [2], the “FGF23-induced calcium mishandling, altered contractility, proarrhythmic calcium release” value is on record as “can be blocked”. In addition, the “FGF19 co-precipitation with immobilized FLAG-sKL” value was “did not bind” in assay [3] and “does not binds FGF19” in assay [3] (listed as FLAG-sKL). Besides, the “FGF23 co-precipitation with immobilized FLAG-sKL” value in assay [4] (listed as FLAG-sKL) is on record as “bound FGF23”; in assay [4] (listed as FLAG-tagged sKL), “FGF23 could be co-precipitated”. Besides, the “FGF21 co-precipitation with immobilized FLAG-sKL” value in assay [5] was “did not bind”; in assay [5] (listed as FLAG-sKL), “does not binds FGF21”.
